Results published in the supplement of paper PMC10065799, “High-throughput profiling of sequence recognition by tyrosine kinases and SH2 domains using bacterial peptide display” (eLife, 2023).

test system: AncSZ; test: phosphorylation enrichment, bacterial display (enrichment ratio); higher = better substrate or ligand; peptides without Tyr show the background
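Further: 11-residue human phosphosite peptides and single-mutation variants displayed on the E. coli surface, counted by deep sequencing, each peptide's frequency after selection divided by its frequency in the unselected input library; frequency after pTyr selection over input frequency; kinase dosed for 20-30% of maximal phosphorylation in three min.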

Row | Sequence | phosphorylation enrichment
1 | ASPALYRLDLD [TRIL_Y352] | 0.798
2 | LYEDRYLLGPS [ASS1_Y87_T91P] | 1.2
3 | FGLPRYRWLTH [TSPAN12_Y143_YF] | 1.01
4 | AEQDWYHGAIP [FER_Y461] | 1.06
5 | EGNERYEGYCV [GRIA3_Y451] | 0.982
6 | QAKRKYQEASK [FES_Y156] | 0.46
7 | SDQPDYDSVAS [GIT2_Y392_N387S] | 1.29
8 | NVADHYRVFKP [ATP6V0D2_Y271_G272R_YF] | 0.708
9 | LARHMYDKEFF [MET_Y1230_D1228H_YF] | 0.78
10 | RMGNLYDIDED [GRIN2A_Y1246] | 1.11
11 | SVTCTYSPALF [TP53_Y126_N131Y_YF] | 1.51
12 | FSALDYKIFYY [WDPCP_Y210_L205F] | 1.38
13 | PSTFRYERGSR [INPPL1_Y663_P659S_YF] | 0.51
14 | RHTRSYDYTEG [FGF7_Y56_M59T] | 0.521
15 | TGQEEYSAMRD [KRAS_Y64_A59T] | 1.08
16 | NVKGIYAVGDV [GSR_Y371] | 0.714
17 | PFTRNYFVRAV [CYBA_Y87_YF] | 1.04

Row | Sequence | phosphorylation enrichment
18 | SIKHKYVTALF [KCNH2_Y611_D609H_YF] | 0.674
19 | RGESFYQDTMN [RARS_Y338_R341T] | 1.02
20 | IITVHYVLEES [RYR2_Y4559_A4556T] | 1.17
21 | DRKRQYELLKL [KIF4B_Y684] | 0.682
22 | DRIVNYSRASV [ATP7A_Y1459_I1464V] | 0.702
23 | RSRSPYSPVLR [CDK13_Y399] | 0.917
24 | RKLVDYDSARH [BIN1_Y150] | 0.491
25 | ETKGDYEKILV [ANXA1_Y335] | 1.16
26 | EIPTQYEAMAS [GFAP_Y242_R239P] | 0.982
27 | DDSNPYINVKL [MTHFD1_Y52_L51P] | 1.45
28 | AHLTEYLSTHF [UQCRC1_Y219_D215H_YF] | 0.902
29 | LSGVIYVILWK [PMP22_Y153_R157W] | 1.44
30 | IVWDSYTTNKV [GNB3_Y85] | 1
31 | PDGVEYLKNNP [GRIN3A_Y831_D835N] | 1.21
32 | YEEDSYVERSQ [RET_Y905_K907E] | 1.27
33 | PRSRSYSSTSI [REPS2_Y462] | 1.11

target: EPHB1 (UniProt P54762); test: as above
Sequence (P54762 whole entry, looked up): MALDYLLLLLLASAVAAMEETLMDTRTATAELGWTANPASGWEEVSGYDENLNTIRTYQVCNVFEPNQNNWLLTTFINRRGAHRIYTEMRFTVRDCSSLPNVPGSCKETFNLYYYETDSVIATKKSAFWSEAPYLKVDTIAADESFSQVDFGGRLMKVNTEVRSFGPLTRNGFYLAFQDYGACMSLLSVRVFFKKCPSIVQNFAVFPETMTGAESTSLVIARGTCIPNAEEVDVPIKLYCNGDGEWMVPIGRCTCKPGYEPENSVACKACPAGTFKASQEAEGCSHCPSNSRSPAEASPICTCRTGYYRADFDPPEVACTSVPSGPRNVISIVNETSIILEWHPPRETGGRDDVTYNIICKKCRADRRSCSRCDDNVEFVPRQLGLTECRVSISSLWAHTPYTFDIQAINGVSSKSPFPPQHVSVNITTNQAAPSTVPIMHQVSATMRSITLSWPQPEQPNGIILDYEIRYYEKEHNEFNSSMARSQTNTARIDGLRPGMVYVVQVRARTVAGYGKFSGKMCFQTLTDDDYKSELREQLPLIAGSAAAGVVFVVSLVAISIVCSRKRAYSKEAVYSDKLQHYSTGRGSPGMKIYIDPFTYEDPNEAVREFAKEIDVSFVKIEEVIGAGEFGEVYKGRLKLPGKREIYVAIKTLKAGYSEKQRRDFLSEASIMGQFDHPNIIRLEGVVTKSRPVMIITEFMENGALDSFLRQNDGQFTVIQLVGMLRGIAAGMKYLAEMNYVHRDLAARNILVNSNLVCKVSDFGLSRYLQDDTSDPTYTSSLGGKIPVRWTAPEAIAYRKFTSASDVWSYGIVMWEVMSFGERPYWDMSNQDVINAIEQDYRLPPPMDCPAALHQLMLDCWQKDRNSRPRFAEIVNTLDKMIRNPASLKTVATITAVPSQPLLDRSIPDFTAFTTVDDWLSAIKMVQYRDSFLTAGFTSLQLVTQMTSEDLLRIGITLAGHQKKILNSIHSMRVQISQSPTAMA

Row | Sequence | phosphorylation enrichment
34 | ASPALYRLDLD [TRIL_Y352] | 0.818
35 | LYEDRYLLGPS [ASS1_Y87_T91P] | 3.52
36 | FGLPRYRWLTH [TSPAN12_Y143_YF] | 0.526
37 | AEQDWYHGAIP [FER_Y461] | 0.481
38 | EGNERYEGYCV [GRIA3_Y451] | 0.542
39 | QAKRKYQEASK [FES_Y156] | 0.342
40 | SDQPDYDSVAS [GIT2_Y392_N387S] | 0.655
41 | NVADHYRVFKP [ATP6V0D2_Y271_G272R_YF] | 0.404
42 | LARHMYDKEFF [MET_Y1230_D1228H_YF] | 0.355
43 | RMGNLYDIDED [GRIN2A_Y1246] | 0.583
44 | SVTCTYSPALF [TP53_Y126_N131Y_YF] | 0.872
45 | FSALDYKIFYY [WDPCP_Y210_L205F] | 0.928
46 | PSTFRYERGSR [INPPL1_Y663_P659S_YF] | 0.368
47 | RHTRSYDYTEG [FGF7_Y56_M59T] | 0.407
48 | TGQEEYSAMRD [KRAS_Y64_A59T] | 0.789
49 | NVKGIYAVGDV [GSR_Y371] | 0.619
50 | PFTRNYFVRAV [CYBA_Y87_YF] | 0.413

Row | Sequence | phosphorylation enrichment
51 | SIKHKYVTALF [KCNH2_Y611_D609H_YF] | 0.471
52 | RGESFYQDTMN [RARS_Y338_R341T] | 2.62
53 | IITVHYVLEES [RYR2_Y4559_A4556T] | 0.777
54 | DRKRQYELLKL [KIF4B_Y684] | 0.44
55 | DRIVNYSRASV [ATP7A_Y1459_I1464V] | 0.482
56 | RSRSPYSPVLR [CDK13_Y399] | 0.476
57 | RKLVDYDSARH [BIN1_Y150] | 0.498
58 | ETKGDYEKILV [ANXA1_Y335] | 0.713
59 | EIPTQYEAMAS [GFAP_Y242_R239P] | 0.853
60 | DDSNPYINVKL [MTHFD1_Y52_L51P] | 0.551
61 | AHLTEYLSTHF [UQCRC1_Y219_D215H_YF] | 0.471
62 | LSGVIYVILWK [PMP22_Y153_R157W] | 0.809
63 | IVWDSYTTNKV [GNB3_Y85] | 0.675
64 | PDGVEYLKNNP [GRIN3A_Y831_D835N] | 0.527
65 | YEEDSYVERSQ [RET_Y905_K907E] | 0.667
66 | PRSRSYSSTSI [REPS2_Y462] | 0.538
